Laboratory results published in publication PMC5029660, “The DEK oncogene activates VEGF expression and promotes tumor angiogenesis and growth in HIF-1α-dependent and -independent manners”.

T1: His-DEK (UniProt P35659 1-375)
T1 sequence: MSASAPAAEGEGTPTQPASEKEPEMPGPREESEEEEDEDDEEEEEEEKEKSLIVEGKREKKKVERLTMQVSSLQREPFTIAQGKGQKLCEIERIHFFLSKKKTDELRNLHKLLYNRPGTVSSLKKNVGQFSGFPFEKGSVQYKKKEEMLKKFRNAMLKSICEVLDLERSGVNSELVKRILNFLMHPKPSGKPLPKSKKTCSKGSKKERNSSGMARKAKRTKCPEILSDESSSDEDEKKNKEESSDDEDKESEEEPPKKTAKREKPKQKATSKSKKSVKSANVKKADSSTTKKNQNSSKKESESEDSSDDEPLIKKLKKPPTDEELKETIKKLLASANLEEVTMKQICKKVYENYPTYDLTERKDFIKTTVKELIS


How the values were obtained:
His-DEK [1] = target: T1, His-DEK; test: EMSA; LightShift Chemiluminescent EMSA Kit (Pierce), per manufacturer; buffer, salt, pH and temperature not stated; conditions: protein: recombinant; tags: His; label: biotin; blunt
His-DEK [2] = target: T1, His-DEK; test: EMSA; abolished by 100-fold excess unlabeled DRE1; LightShift Chemiluminescent EMSA Kit (Pierce), per manufacturer; buffer, salt, pH and temperature not stated; conditions: protein: recombinant; tags: His; label: biotin; blunt

| Binder | binding result (His-DEK [1]) | binding result (His-DEK [2]) |
| --- | --- | --- |
| DRE1-M (dsDNA) DNA 1: GGGTTGAGGGCGGGTTCTATTTGAGAAGGCCAGGGGT DNA 2: ACCCCTGGCCTTCTCAAATAGAACCCGCCCTCAACCC | no binding |  |
| DRE2 (dsDNA) DNA 1: TGGAAAGGGAGGGTTGGGGTGGGTGGGAGCCAGCCCT DNA 2: AGGGCTGGCTCCCACCCACCCCAACCCTCCCTTTCCA | no binding |  |
| DRE1 (dsDNA) DNA 1: GGGTTGAGGGCGTTGGAGCGGGGAGAAGGCCAGGGGT DNA 2: ACCCCTGGCCTTCTCCCCGCTCCAACGCCCTCAACCC |  | binds |
| HRE (dsDNA) DNA 1: ACAGTGCATACGTGGGCTCCAACAGGTCCTCTTCCCTCCC DNA 2: GGGAGGGAAGAGGACCTGTTGGAGCCCACGTATGCACTGT | no binding |  |
